The record followed here is US9751918B2, “Transgenic plants expressing cobalamin binding proteins” (XERAGENX LLC, priority 2001, dated 2017).

Experiment [1] is described as follows: Competitive binding of 57Co-labelled cobalamin versus unlabelled cobalamin. To be noted: 57Co-cobalamin mixed with increasing non-radioactive cobalamin, bound fraction by gamma counter. How it is done: (§1) Equal amounts of the respective proteins were added to a mixture containing a fixed amount of cobalt (57Co) labelled cobalamin mixed with increasing amounts of non-radioactive cobalamin or cobinamide (X axis). Free and bound ligand were separated and the amount of 57Co attached to the protein was measured in a gamma counter. The 57Co fraction bound relative to the amount of 57Co bound in the absence of unlabeled cobalamin or cobinamide was calculated (Y axis).
(§2) Both recombinant proteins were extracted form transgenic Arabidopsis thaliana plants. Equal amounts of the respective proteins were added to a mixture containing a fixed amount of cobalt (57Co) labeled cobalamin mixed with increasing amounts of nonradioactive cobalamin or cobinamide (X axis). Free and bound ligand was separated and the amount of 57Co attached to the protein was measured in a gamma counter. The 57Co fraction bound relative to the amount of 57Co bound in the absence of unlabelled cobalamin or cobinamide was calculated (Y axis).
(§3) One kilogram of three week old IF-plants was homogenization with 2 liters of phosphate buffer and clarified by centrifugation. This extract contained 100 mg recombinant human IF with CBC. This IF had specificity for cobalamin binding whereas the analog cobinamid was not bound by the IF as tested by the method described by (15).

Experiment [2] concerns the target human intestinal receptor protein cubilin (Homo sapiens, UniProt O60494). In words: BIAcore 2000 binding of intrinsic factor to immobilized cubilin. To be noted: for binding to cubilin, holo-form: intrinsic factor saturated with vitamin B12 (holo-form); for binding to cubilin, apo-form: intrinsic factor unsaturated with vitamin B12 (apo-form). How it is done:
The binding between intrinsic factor and its receptor cubilin was analysed employing a BIAcore 2000 instrument (Biacore AB, Uppsala, Sweden). An increase in Resp. Diff. (Y axis) indicates binding between intrinsic factor and cubilin. At time approximately 100 a solution with intrinsic factor is added to the immobilized cubilin. Intrinsic factor was isolated from transgenic plants, human gastric juice and hog stomach. Preparations of vitamin B 12 saturated and vitamin B12 unsaturated intrinsic factor were used. At time approximately 600 intrinsic factor is removed from the solution and the dissociation between cubilin and intrinsic factor is followed.
For orientation: Surface plasmon resonance follows binding to a sensor surface in real time, without labels.

A short description of experiment [3]: Competitive binding of 57Co-labelled cobalamin versus unlabelled cobinamide. Particulars: 57Co-cobalamin mixed with increasing non-radioactive cobinamide; bound fraction by gamma counter. How it is done:
as §1, §2, §3

[4] abbreviates: listed as native intrinsic factor.
Setting [5] is: listed as recombinant intrinsic factor.

human intestinal receptor protein cubilin, sequence (O60494 36-3623): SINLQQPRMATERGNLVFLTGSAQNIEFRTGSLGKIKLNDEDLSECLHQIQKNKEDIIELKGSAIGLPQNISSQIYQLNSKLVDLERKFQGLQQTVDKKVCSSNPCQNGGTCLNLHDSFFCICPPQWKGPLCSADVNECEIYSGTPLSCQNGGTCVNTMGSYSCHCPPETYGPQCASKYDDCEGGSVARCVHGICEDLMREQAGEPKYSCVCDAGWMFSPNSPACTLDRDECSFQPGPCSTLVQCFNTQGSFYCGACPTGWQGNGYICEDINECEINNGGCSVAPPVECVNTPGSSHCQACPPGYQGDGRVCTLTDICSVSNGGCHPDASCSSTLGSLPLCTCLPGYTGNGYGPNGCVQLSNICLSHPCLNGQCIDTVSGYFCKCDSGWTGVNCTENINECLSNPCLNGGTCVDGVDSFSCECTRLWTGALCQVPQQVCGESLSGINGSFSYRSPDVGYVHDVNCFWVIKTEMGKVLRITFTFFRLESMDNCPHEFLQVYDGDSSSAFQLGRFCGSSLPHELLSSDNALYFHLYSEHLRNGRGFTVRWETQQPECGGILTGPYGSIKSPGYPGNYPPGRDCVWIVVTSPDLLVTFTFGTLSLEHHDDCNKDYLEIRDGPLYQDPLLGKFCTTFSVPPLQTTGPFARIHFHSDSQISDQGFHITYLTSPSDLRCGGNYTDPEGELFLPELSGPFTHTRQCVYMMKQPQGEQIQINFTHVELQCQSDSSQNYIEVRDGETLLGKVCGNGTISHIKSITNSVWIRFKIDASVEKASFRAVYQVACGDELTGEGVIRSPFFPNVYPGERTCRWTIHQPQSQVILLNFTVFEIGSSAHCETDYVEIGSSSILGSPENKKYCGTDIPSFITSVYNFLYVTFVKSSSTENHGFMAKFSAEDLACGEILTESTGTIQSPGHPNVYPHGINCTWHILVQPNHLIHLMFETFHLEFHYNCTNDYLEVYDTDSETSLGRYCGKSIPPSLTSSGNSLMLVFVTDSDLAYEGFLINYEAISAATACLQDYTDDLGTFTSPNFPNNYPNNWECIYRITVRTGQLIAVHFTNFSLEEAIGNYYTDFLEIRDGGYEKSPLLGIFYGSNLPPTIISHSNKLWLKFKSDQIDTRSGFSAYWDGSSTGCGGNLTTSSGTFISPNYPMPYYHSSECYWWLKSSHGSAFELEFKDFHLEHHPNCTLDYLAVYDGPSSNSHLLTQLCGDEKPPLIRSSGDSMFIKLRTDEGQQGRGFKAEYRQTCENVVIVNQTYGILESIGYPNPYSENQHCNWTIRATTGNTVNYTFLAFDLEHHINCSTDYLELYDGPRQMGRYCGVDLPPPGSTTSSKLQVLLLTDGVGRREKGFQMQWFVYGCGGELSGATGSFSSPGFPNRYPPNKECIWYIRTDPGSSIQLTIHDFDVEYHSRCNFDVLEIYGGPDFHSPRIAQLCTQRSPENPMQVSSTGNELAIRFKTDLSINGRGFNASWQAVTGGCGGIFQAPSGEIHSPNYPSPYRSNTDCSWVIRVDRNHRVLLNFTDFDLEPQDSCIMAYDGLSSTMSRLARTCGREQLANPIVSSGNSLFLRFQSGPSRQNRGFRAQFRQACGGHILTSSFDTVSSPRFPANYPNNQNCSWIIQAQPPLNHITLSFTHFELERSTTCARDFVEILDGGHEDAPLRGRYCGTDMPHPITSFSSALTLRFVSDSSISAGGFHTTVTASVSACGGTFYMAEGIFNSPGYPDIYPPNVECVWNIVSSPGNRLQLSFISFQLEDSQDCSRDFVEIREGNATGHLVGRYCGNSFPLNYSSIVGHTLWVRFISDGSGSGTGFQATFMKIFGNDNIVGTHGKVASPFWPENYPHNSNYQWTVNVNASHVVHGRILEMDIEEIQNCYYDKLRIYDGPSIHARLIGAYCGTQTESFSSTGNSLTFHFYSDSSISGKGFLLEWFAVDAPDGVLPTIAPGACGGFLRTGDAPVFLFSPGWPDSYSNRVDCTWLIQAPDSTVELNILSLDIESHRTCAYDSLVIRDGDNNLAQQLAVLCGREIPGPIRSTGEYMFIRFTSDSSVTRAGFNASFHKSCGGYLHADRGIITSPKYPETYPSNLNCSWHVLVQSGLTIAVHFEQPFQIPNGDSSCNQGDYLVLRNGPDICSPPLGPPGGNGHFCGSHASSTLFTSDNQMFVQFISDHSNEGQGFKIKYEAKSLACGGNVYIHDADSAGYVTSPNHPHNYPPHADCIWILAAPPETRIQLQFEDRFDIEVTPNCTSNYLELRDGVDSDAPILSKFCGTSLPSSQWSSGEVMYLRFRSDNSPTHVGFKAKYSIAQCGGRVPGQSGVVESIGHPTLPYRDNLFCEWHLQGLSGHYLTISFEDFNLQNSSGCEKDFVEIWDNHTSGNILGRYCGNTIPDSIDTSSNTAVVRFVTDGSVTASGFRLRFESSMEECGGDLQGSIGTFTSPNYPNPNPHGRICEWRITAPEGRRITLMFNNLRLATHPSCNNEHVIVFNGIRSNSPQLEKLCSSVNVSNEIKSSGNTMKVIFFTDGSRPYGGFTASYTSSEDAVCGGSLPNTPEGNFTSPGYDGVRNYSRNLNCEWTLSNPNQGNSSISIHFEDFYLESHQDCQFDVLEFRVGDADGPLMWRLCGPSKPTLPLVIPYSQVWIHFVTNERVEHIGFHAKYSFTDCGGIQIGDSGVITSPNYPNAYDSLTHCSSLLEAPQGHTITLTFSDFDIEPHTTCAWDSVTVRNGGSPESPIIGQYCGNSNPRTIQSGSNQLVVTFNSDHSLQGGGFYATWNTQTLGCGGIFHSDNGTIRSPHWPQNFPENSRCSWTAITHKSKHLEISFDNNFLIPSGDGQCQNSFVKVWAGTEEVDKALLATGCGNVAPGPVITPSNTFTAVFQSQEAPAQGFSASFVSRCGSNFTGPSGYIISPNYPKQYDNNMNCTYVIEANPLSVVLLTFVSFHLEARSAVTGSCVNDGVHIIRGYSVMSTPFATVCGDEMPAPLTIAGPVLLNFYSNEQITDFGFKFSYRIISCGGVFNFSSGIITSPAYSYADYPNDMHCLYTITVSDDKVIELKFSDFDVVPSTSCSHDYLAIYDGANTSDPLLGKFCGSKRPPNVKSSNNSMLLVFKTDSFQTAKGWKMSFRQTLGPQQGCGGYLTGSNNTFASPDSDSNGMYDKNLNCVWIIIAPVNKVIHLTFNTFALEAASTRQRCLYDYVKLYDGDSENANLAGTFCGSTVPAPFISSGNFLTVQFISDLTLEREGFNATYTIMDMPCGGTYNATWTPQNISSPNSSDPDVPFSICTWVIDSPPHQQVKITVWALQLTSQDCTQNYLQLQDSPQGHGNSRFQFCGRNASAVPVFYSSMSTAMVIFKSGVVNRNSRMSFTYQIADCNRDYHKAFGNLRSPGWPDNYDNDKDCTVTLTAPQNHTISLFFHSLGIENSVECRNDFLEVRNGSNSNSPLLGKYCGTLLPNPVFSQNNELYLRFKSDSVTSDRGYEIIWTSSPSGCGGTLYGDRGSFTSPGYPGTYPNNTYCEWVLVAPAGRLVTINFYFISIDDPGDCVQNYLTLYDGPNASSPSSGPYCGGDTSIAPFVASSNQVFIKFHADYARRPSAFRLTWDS
human intestinal receptor protein cubilin, sequence (P27352 19-417 partner): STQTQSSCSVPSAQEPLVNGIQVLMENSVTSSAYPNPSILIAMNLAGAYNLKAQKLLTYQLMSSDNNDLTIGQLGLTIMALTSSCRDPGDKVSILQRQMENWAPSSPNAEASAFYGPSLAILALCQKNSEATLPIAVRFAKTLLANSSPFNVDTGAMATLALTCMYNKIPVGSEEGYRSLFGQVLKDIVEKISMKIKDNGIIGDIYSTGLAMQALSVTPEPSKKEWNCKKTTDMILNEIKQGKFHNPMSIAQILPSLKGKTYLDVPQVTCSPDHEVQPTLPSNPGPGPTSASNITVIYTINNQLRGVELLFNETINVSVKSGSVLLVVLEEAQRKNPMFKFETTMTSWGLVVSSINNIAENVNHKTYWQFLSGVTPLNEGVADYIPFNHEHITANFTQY

Consider “native human gastric IF: Native intrinsic factor present in / isolated from human gastric juice, used for comparison [reference compound]”, for which the “ability to bind cobalamin” value is given as “specificity for binding Cbl” in experiment [1] and “specificity for binding cobalamin” in experiment [1] (listed as native IF). Moreover, the “binding to cubilin, holo-form” value is “bind to the cubulin receptor” in experiment [2] (listed as human gastric IF) and “binds to cubilin” in experiment [2] (setting [4]). Besides, the “binding to cubilin, apo-form” value in experiment [2] (listed as human gastric IF) is recorded as “only when in holo-form”; in experiment [2] (setting [4]), “only when saturated with vitamin B12”. In experiment [3], the “ability to bind cobinamid” value was “not cobinamid”.
As for “rhIF from plants: Recombinant human intrinsic factor extracted from transgenic Arabidopsis thaliana plants (mature sequence SEQ ID NO:4)”, the “ability to bind cobalamin” value in experiment [1] is on record as “specificity for binding Cbl”; in experiment [1] (listed as recombinant IF), “specificity for binding cobalamin”; in experiment [1] (listed as recombinant human intrinsic factor) it was “bind cobalamin”. The figures for the “binding to cubilin, holo-form” value in experiment [2] and in experiment [2] (setting [5]) were “binds” and “binds to cubilin”, respectively. Moreover, the “binding to cubilin, apo-form” value in experiment [2] was “does not bind”; in experiment [2] (setting [5]) it was “only when saturated with vitamin B12”. Further, the “ability to bind cobinamid” value in experiment [3] is listed as “not cobinamid”.

B1: rhTC: Recombinant human transcobalamin extracted from transgenic Arabidopsis thaliana plants (mature sequence SEQ ID NO:11) (protein)
chain: EMCEIPEMDSHLVEKLGQHLLPWMDRLSLEHLNPSIYVGLRLSSLQAGTKEDLYLHSLKLGYQQCLLGSAFSEDDGDCQGKPSMGQLALYLLALRANCEFVRGHKGDRLVSQLKWFLEDEKRAIGHDHKGHPHTSYYQYGLGILALCLHQKRVHDSVVDKLLYAVEPFHQGHHSVDTAAMAGLAFTCLKRSNFNPGRRQRITMAIRTVREEILKAQTPEGHFGNVYSTPLALQFLMTSPMPGAELGTACLKARVALLASLQDGAFQNALMISQLLPVLNHKTYIDLIFPDCLAPRVMLEPAAETIPQTQEIISVTLQVLSLLPPYRQSISVLAGSTVEDVLKKAHELGGFTYETQASLSGPYLTSVMGKAAGEREFWQLLRDPNTPLLQGIADYRPKDGETIELRLVSW
modifications: plant-expressed; homo sapiens
Consider B1, for which the results for the “ability to bind cobalamin” value in experiment [1] and in experiment [1] (listed as recombinant human transcobalamin) were “binds to Cbl” and “bind cobalamin”, respectively. Further, the “ability to bind cobinamid” value in experiment [3] was “not cobinamid”.
